Data set [1] addresses T1, SEBF (recombinant) (Solanum tuberosum).
T1 chain: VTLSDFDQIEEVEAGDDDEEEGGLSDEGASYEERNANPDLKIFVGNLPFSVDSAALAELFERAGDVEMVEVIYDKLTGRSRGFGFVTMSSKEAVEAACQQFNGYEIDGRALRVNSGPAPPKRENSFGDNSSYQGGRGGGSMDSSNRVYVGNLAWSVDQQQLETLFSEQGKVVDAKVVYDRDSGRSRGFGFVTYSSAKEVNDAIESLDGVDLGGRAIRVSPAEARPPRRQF
Kind of data set: EMSA; 10 ng recombinant SEBF. The note with it: tags: GST fusion expressed in E. coli BL21; GST cleaved with thrombin; label: 32P. The text has this: (§1) FIGS. 2A, 2B, 2C and 2D show mutational analysis of potato silencing element (SE). FIG. 2A: Schematic representation of the reporter constructs and mutant oligonucleotides used in this study. Reporter constructs contain the PR-10a promoter region from −135 to +136 fused to the bacterial gene uidA encoding […] (GUS). The position of the elicitor response element (ERE), the silencing element (SE) and the TATA box are shown (TATA). The transcriptional start site is indicated by an arrow. The common sequence between the wild-type (WT; SEQ ID NO:45) and mutant oligonucleotides m1 to m5 (SEQ ID NOs:1 to 5) is indicated by dashed lines, and mutated nucleotides are represented by lowercase letters. FIG. 2B: EMSA studies using 10 μg of crude potato tuber nuclear preparation and 20,000 CPM of the ³²P labeled single-stranded CS oligonucleotides presented in FIG. 2A. FIG. 2C: EMSA studies using 10 ng of purified recombinant SEBF and 20,000 CPM of the ³²P labeled single-stranded CS oligonucleotides presented in FIG. 2A. FIG. 2D: The sequence from −52 to −27 of the PR-10a promoter fused to the uidA gene was replaced by the sequences presented in FIG. 2A. The resulting plasmids were electroporated in potato leaf protoplasts and the GUS activity was measured. The histogram represents fold activity to wild type (WT=1). […]
On the technique in general: A gel shift assay detects complexes by their altered migration in electrophoresis.

Data set [2] addresses T2, SEBF (affinity purified, 29 and 28 kD bands) (Solanum tuberosum).
T2 chain: T1 chain
The data set is described as follows: southwestern; 29 and 28 kD bands each bind. The note with it: tags: none; label: 32P. On the procedure:
FIG. 4 is a picture of a gel showing the purification of SEBF. Coomassie staining of proteins from each step of the purification of SEBF (lanes 1 through 4). The crude nuclear extract (Crude; lane 1) was loaded on a Q-Sepharose™ column. SEBF was eluted at 400 mM NaCl (Q-seph; lane 2) before two rounds of affinity purification (Aff.1, Aff.2; lane 3, lane 4). […] Arrows indicate the two purified bands. Molecular weight markers are indicated on the left.
Both of these proteins were subjected to N-terminal sequence analysis.

For data set [3], the target named is T1, SEBF (recombinant). Kind of data set: EMSA; specificity similar to native SEBF. The note with it: tags: GST fusion expressed in E. coli BL21; GST cleaved with thrombin; label: 32P.
Excerpt: as §1

Data set [4] deals with T1, SEBF (recombinant). The data set is described as follows: EMSA; specificity stated similar to native SEBF. As to conditions: tags: GST fusion expressed in E. coli BL21; GST cleaved with thrombin; label: 32P.
Excerpt: as §1

B1: PR-10a SE coding strand WT (ssDNA)
DNA: TCTAGACTGTCACTTGTTTTTTTTA
In the case of B1, the binding result (with SEBF (recombinant) [1]; in data set [2]) was “binds” each time.

B2: SE m1 (ssDNA)
DNA: TCTAGATCGAATTCCGCTCGACCGG
Take B2: in the data set with SEBF (recombinant) [3], the binding result is listed as “no binding”.

B3: SE m2 (ssDNA)
DNA: CATGGACTGTCACTTGTTTTTTTTA
B3: the binding result in the data set with SEBF (recombinant) [4] was “binds”.

These data come from patent publication US20050055741, “Plant transcriptional repressor, proteic nuclear factors binding thereto, and uses thereof” (published 2005).
